Like-named read-outs stand apart in the source and are kept apart here. Non-standard residues stand in square brackets, D forms with d. Residues, ends and D or L forms follow the SMILES beside them. *: point of attachment. Dolaproine = CO[C@@H]([C@@H]1CCCN1)[C@@H](C)C(=O)O; Dil = CC[C@H](C)[C@H](NC)[C@@H](CC(=O)O)OC; X1 = C[C@@H](N*)[C@@H](O)c1ccccc1; NMeV = CN[C@H](C(=O)O)C(C)C
B1: DCBPR2002-2(DBCO-vc-seco-DUBA)-2(DBCO-s-DM1): dual-payload ADC: DCBPR2002-2(DBCO-vc-seco DUBA)-2Az reacted with DBCO-S-DM1; DAR ~4 (conjugate)
VH: QVQLVQSGAEVKKPGASVKVSCKASGYSFTGYTMNWVRQAPGQGLEWMGLITPYNGASSYNQKFRGRVTMTRDTSISTAYMELSRLRSDDTAVYYCARGGYDGRGFDYWGQGTLVTVSS
VL: EIVLTQSPATLSLSPGERATLSCSASSSVSYMHWYQQKPGQAPRLLIYDTSKLASGIPARFSGSGSGTDFTLTISSLEPEDFAVYYCQQWSKHPLTFGQGTKVEIKR
B2: DCBPR2002-2(DBCO-vc-MMAE)-2(DBCO-s-DM1): dual-payload ADC: DCBPR2002-2(DBCO-vc-MMAE)-2Az reacted with DBCO-S-DM1; DAR ~4 (conjugate)
VH: QVQLVQSGAEVKKPGASVKVSCKASGYSFTGYTMNWVRQAPGQGLEWMGLITPYNGASSYNQKFRGRVTMTRDTSISTAYMELSRLRSDDTAVYYCARGGYDGRGFDYWGQGTLVTVSS
VL: EIVLTQSPATLSLSPGERATLSCSASSSVSYMHWYQQKPGQAPRLLIYDTSKLASGIPARFSGSGSGTDFTLTISSLEPEDFAVYYCQQWSKHPLTFGQGTKVEIKR
B3: DCBPR2002-4(DBCO-s-DM1) (conjugate)
VH: QVQLVQSGAEVKKPGASVKVSCKASGYSFTGYTMNWVRQAPGQGLEWMGLITPYNGASSYNQKFRGRVTMTRDTSISTAYMELSRLRSDDTAVYYCARGGYDGRGFDYWGQGTLVTVSS
VL: EIVLTQSPATLSLSPGERATLSCSASSSVSYMHWYQQKPGQAPRLLIYDTSKLASGIPARFSGSGSGTDFTLTISSLEPEDFAVYYCQQWSKHPLTFGQGTKVEIKR

Legend:
[1] = test system: Pancreatic cancer cell line KLM-1 (MSLN+); test: In vitro cytotoxicity, CellTiter-Glo luminescent cell viability assay, KLM-1; format: cell-based, human; conditions: KLM-1, 72 hours treatment; read-out: Relative IC50 (nM of toxic payload/ADCs)
Method: (§1) Pancreatic cancer cell line KLM-1 was respectively grown in RPMI 1640 Medium (ATCC modification) medium supplemented with 10% fetal bovine serum. Ovarian carcinoma cell line OVCAR-3 was grown in RPMI 1640 Medium (ATCC modification) medium supplemented with 20% fetal bovine serum. The KLM-1 & OVCAR-3 cell lines were maintained in an atmosphere of 5% CO2 in a humidified 37° C. incubator. The day before treatment, cells were collected and seeded into 96-well plates (4,000 cells per well). On the second day, cells were treated with 3-fold serial dilution concentration of toxic payloads and ADCs. Each treatment was performed in eight triplicate data points. After the treatment of 72 hours, cell viability was assessed by CellTiter-Glo® kit (Promega) according to the manufacturer's instruction. At the end of the incubation, luminescence was measured using a SpectraMax i3x Multi Mode Detection Platform (Molecular Devices). Compound cytotoxicity was evaluated in comparison to cells treated with 0.05% PBS (ADCs) or 0.05% DMSO (toxic payload). IC50 values were calculated by fitting viability data with a four-parameter logistic equation using GraphPad prism 5.0 software.

[2] = test system: Ovarian carcinoma cell line OVCAR-3 (MSLN+); test: In vitro cytotoxicity, CellTiter-Glo luminescent cell viability assay, OVCAR-3; format: cell-based, human; conditions: read-out: Relative IC50 (nM of toxic payload/ADCs)
Method: as §1, with “The” for “Pancreatic cancer cell line KLM-1 was respectively grown in RPMI 1640 Medium (ATCC modification) medium supplemented with 10% fetal bovine serum. Ovarian carcinoma cell line OVCAR-3 was grown in RPMI 1640 Medium (ATCC modification) medium supplemented with 20% fetal bovine serum. The”

mesothelin protein = mesothelin protein (Homo sapiens, UniProt Q13421); test: Affinity measurements and kinetic analysis using BIAcore (SPR), mesothelin immobilised; format: binding
Method: To know the biding kinetics difference among individual antibodies, surface plasmon resonance (SPR) measurement with a BIAcore T200 (Cytiva Inc.) was used as previously described (Karlsson & Falt, (1997) J. Immunol Methods 200:121-133). Carboxymethylated dextran biosensor chips (CM5, Cytiva Inc.) were activated with N-ethyl-N′-(3-dimethylaminopropyl)-carbodiimide hydrochloride (EDC) and N-hydroxysuccinimide (NHS) according to the supplier's instructions. Mesothelin protein was diluted with 10 mM sodium acetate, pH 4.0, into 5 μg/ml before injection at a flow rate of 10 μL/minute to achieve approximately 1500 response units (RU) of coupled protein followed by the injection of 1M ethanolamine to block unreacted groups. For kinetics measurements, two-fold serial dilutions of anti-mesothelin mAb (0.3125 nM to 40 nM) were injected in HBS-EP+ Biacore running buffer provided by the manufacturer (Cytiva Inc.) at 25 degree C. at a flow rate of 30 μL/min, and binding responses on the mesothelin protein were corrected by subtraction of responses on a blank flow cell. Association rates (kon or ka) and dissociation rates (koff or kd) were calculated using a simple one-to-one Langmuir binding model with separate fittings of kon and koff was used. (Cytiva.™. Biacore Insight Evaluation Software).

[3] = test system: KLM-1 human pancreatic cancer xenograft; test: KLM-1 xenograft model (Example 45); conditions: 15 mg/kg IV once weekly for 3 weeks
Method: Formulations respectively comprising test article DCBPR2002-4(DBCO-vc-MMAE)(15 mg/kg), test article DCBPR2002-4(DBCO-vc-seco-DUBA)(15 mg/kg), test article DCBPR2002-4(DBCO-s-DM1) (15 mg/kg), test article DCBPR2002-2(DBCO-vc-MMAE)-2(DBCO-vc-seco-DUBA) (15 mg/kg), test article DCBPR2002-2(DBCO-vc-MMAE)-2(DBCO-s-DM1) (15 mg/kg), test article DCBPR2002-2(DBCO-vc-seco-DUBA)-2(DBCO-s-DM1) (15 mg/kg), and a corresponding vehicle were formulated by diluting the stock with a 25 mM sodium citrate buffer (pH6.5). Each of the formulations was administered intravenously (IV) once weekly for three weeks.
The KLM-1 cells were maintained in vitro as a monolayer culture in RPMI-1640 medium supplemented with 10% fetal bovine serum at 37° C. in an atmosphere of 5% CO2 in air. The tumor cells were routinely sub-cultured twice weekly by trypsin-EDTA treatment. The cells growing in an exponential growth phase were harvested and counted for tumor inoculation.
Male NOD SCID mice at age of 6-7 weeks were purchased from BioLasco Taiwan Co., LTD. and quarantined for one week. Five mice were housed in each cage. All animals were hosted in the animal facility with a 12-h light/12-h dark cycle at 19-25° C. Animals had free access to rodent pellet foods and water ad libitum.
KLM-1 cells were subcutaneously (SC) implanted (4×10^6 cells in 1:1 PBS/matrigel mixture at 0.1 mL per mouse) into the right flank of male NOD SCID mice. When the average tumor volume had reached 300 mm^3, the mice were randomly divided into 7 groups (N=6 per group). Each of the vehicle, DCBPR2002-4(DBCO-vc-MMAE), DCBPR2002-4(DBCO-vc-seco-DUBA), DCBPR2002-4(DBCO-s-DM1), DCBPR2002-2(DBCO-vc-MMAE)-2(DBCO-vc-seco-DUBA), DCBPR2002-2(DBCO-vc-MMAE)-2(DBCO-s-DM1), DCBPR2002-2(DBCO-vc-seco-DUBA)-2(DBCO-s-DM1) was intravenously administered as 15 mg/kg once weekly for 3 weeks.
The tumor volumes, body weights, mortality, and signs of overt toxicity were monitored and recorded three times weekly for 28 days. Tumor volumes were measured three times per week using calipers and calculated according to the formula: Tumor Volume=(w2×l)/2, where w=width and l=length in diameter (mm) of the tumor. […] One-way ANOVA followed by Dunnett's test was applied for comparison between the vehicle and test article-treated groups. Differences are considered significant at *P<0.05. Animals were weighed three times weekly until the completion of the study.

[4] = BIAcore T200, 25 degree C, 1:1 Langmuir model

Sequence of mesothelin protein (Q13421 with tags, fused parts or gaps): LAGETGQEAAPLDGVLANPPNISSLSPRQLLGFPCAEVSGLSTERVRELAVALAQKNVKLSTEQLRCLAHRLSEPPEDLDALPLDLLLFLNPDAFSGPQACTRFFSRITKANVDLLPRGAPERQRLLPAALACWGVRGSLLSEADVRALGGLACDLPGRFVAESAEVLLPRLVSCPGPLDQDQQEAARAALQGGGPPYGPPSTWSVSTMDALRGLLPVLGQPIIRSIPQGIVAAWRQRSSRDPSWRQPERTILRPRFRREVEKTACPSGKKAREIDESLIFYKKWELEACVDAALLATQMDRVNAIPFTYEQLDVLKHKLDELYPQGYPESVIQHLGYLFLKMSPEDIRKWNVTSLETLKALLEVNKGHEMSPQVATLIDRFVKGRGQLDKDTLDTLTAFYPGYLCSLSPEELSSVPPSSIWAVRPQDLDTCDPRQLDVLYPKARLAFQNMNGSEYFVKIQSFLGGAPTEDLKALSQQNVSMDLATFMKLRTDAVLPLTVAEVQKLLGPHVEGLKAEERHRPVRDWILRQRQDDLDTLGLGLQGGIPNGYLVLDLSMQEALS

Molecule | IC50 [1] [nM] | IC50 ([2]; OVCAR-3, 72 hours treatment) [nM] | body weight changes [3] | ranking of efficacy potency [3] | further results
CC[C@H](C)[C@@H]([C@@H](CC(=O)N1CCC[C@H]1[C@H](OC)[C@@H](C)C(=O)N[C@H](C)[C@@H](O)c1ccccc1)OC)N(C)C(=O)[C@@H](NC(=O)[C@@H](NC)C(C)C)C(C)C [MMAE, monomethyl auristatin E, reference compound] (H-[NMeV]V[Dil][Dolaproine]-X1) | 0.3 | 0.3 |  |  | 
CC[C@@]1(O)C(=O)OCc2c1cc1n(c2=O)Cc2c-1nc1cc(F)c(C)c3c1c2[C@@H](NC(=O)CO)CC3 [DXd, reference compound] |  | > 100 |  |  | 
COc1cc2cc(c1Cl)N(C)C(=O)C[C@H](OC(=O)[C@H](C)N(C)C(=O)CCS)[C@]1(C)O[C@H]1[C@H](C)[C@@H]1C[C@@](O)(NC(=O)O1)[C@H](OC)/C=C/C=C(\C)C2 [DM1, reference compound] | 2.1 | 1.6 |  |  | 
CC[C@@]1(O)C(=O)OCc2c1cc1n(c2=O)Cc2c-1nc1cc(F)c(C)c3c1c2[C@@H](N)CC3 [Exatecan, reference compound] |  |  |  |  | IC50 ([2]; Homo sapiens, OVCAR-3, 72 h): 20.1 nM
SS1: mouse anti-mesothelin antibody clone SS1, SEQ ID NOs: 7 and 8, of U.S. Pat. No. 7,081,518 B1; expressed as human Fc chimera [reference compound] |  |  |  |  | Rmax(RU) (mesothelin protein; BIAcore T200): 218.2 RU; ka (mesothelin protein; [4]): 3.415e+06 M⁻¹ s⁻¹; kd (mesothelin protein; [4]): 1.194e-05 s⁻¹; kd (mesothelin protein; BIAcore T200, 25 degree C, 1:1 Langmuir model, listed as chimera SS1 mAb): 1.194e-05 s⁻¹
B1 | 27 | 36.3 | No body weight loss was observed | DCBPR2002-4(DBCO-vc-seco-DUBA)=DCBPR2002-2(DBCO-vc-MMAE)-2(DBCO-vc-seco-DUBA)=DCBPR2002-2(DBCO-vc-seco-DUBA)-2(DBCO-s-DM1)>DCBPR2002-4(DBCO-vc-MMAE)>DCBPR2002-2(DBCO-vc-MMAE)-2(DBCO-s-DM1)>DCBPR2002-4(DBCO-s-DM1) | 
B2 | 15.4 | 4.6 | No body weight loss was observed | DCBPR2002-4(DBCO-vc-seco-DUBA)=DCBPR2002-2(DBCO-vc-MMAE)-2(DBCO-vc-seco-DUBA)=DCBPR2002-2(DBCO-vc-seco-DUBA)-2(DBCO-s-DM1)>DCBPR2002-4(DBCO-vc-MMAE)>DCBPR2002-2(DBCO-vc-MMAE)-2(DBCO-s-DM1)>DCBPR2002-4(DBCO-s-DM1) | 
B3 | 13.9 | 2.6 | No body weight loss was observed | DCBPR2002-4(DBCO-vc-seco-DUBA)=DCBPR2002-2(DBCO-vc-MMAE)-2(DBCO-vc-seco-DUBA)=DCBPR2002-2(DBCO-vc-seco-DUBA)-2(DBCO-s-DM1)>DCBPR2002-4(DBCO-vc-MMAE)>DCBPR2002-2(DBCO-vc-MMAE)-2(DBCO-s-DM1)>DCBPR2002-4(DBCO-s-DM1) | 

From US11998613B2, “Antibody-drug conjugates containing an anti-mesothelin antibody and uses thereof” (DEVELOPMENT CENTER FOR BIOTECHNOLOGY, priority 2020, dated 2024)
